# Measurements taken from patent US20070178531A1 (BIOCHECK, published 2007).
# Positions count from the first letter of the chain named.
# T1: Human Id1: Histidine (human, UniProt P41134 1-155, limits assumed)
# T1 construct: Fusion protein made in E. coli from vector pGW07; also called h-Id1: his; not shown: His tag
# T1 sequence (looked up): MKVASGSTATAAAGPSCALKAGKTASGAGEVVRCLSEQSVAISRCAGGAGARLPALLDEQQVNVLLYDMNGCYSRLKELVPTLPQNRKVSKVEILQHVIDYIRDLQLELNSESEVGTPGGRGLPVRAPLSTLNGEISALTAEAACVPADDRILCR
# T2: Mouse Id3: Histidine (mouse, UniProt P41133 1-119)
# T2 construct: Fusion protein made in E. coli from vector pGW07; also called m-Id3: His; Mouse Id3 (coated wells); not shown: His tag
# T2 sequence: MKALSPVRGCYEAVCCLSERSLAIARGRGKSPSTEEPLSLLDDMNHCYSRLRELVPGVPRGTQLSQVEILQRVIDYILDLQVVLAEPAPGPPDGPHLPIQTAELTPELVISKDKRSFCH
# T3: Mouse Id2: Histidine (mouse, UniProt P41136 1-134, limits assumed)
# T3 construct: Fusion protein made in E. coli from vector pGW07; also called m-Id2: His; not shown: His tag
# T3 sequence (looked up): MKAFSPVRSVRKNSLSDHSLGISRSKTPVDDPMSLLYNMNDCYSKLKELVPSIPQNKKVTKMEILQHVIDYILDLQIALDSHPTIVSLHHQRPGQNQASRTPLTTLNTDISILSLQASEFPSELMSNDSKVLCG
# T4: Mouse Id1: Histidine (mouse, UniProt P20067-2 1-148, limits assumed)
# T4 construct: Fusion protein made in E. coli from vector pGW07; also called m-Id1-His; not shown: His tag
# T4 sequence (looked up): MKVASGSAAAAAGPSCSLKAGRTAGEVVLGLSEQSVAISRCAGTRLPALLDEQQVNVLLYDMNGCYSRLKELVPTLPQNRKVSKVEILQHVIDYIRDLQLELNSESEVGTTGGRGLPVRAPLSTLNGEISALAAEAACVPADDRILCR
# T5: Human Id3: Histidine (human, UniProt Q02535 1-119 at identity 1.00))
# T5 construct: Fusion protein made in E. coli from vector pGW07; also called h-Id3: His; Human Id3 (coated wells); not shown: His tag
# T5 chain: T2 sequence with S31G, S33A, T34A, T105A, K112N
# T6: Human Id2: Histidine (human, UniProt Q02363 1-134, limits assumed)
# T6 construct: Fusion protein made in E. coli from vector pGW07; also called h-Id2: His; not shown: His tag
# T6 sequence (looked up): T3 sequence (looked up) with T60S, V131A
# B1: rabbit monoclonal anti-mouse/human Id3, clone #BCH-4/#6-1 (antibody, V domains shown)
# VH: QSVEESGGRLVTPGTPLTLTCTASGFSLSNVYIHWVRQAPGKGLEWIGYISDGDTARYATWAKGRFTISKTSSTTVNLKMTSLTTEDTATYFCARQGFNIWGPGTLVTVSL
# VL: AVLTQTPSPVSAAVGGTVSISCQSSQSVWNNNWLSWFQQKPGQPPKLLIYETSKLESGVPSRFKGSGSGTQFTLTISDVQCDDAATYYCLGGYWTTSDNNVFGGGTEVVVK
# notes: Rabbit IgG from a rabbit hybridoma; also called m/h Id3 MoAb 6-1
# Key:
# [1] = molecular target: T1, Human Id1: Histidine; experiment: ELISA, positive control (stated to be BCH-4/6-1) 0.25 µg/ml
# Method: (§1) 1. Dispense 100 μL of antibody diluent, diluted rabbit monoclonal human Id3, and mouse/human Id3 hybridoma supernatants into appropriate wells. […] 2. Incubate at room temperature with mechanical shaking at 750 rpm for 90 minutes. [0165] 3. Remove the incubation mixture by flicking plate content into an appropriate waste container followed by rinsing the wells 5 times with distilled water. [0166] 4. Strike the wells sharply onto absorbent paper or paper towels to remove all residual water droplets. [0167] 5. Dispense 100 μL of 1:50,000 Goat Anti-Rabbit IgG-HRP Conjugate Reagent into each well. Gently mix for 5 seconds. [0168] 6. Incubate at room temperature with mechanical shaking at 750 rpm for 90 minutes. [0169] 7. Repeat procedures 3 and 4. [0170] 8. Dispense 100 μL of TMB Reagent into each well. Gently mix for 5 seconds. [0171] 9. Incubate at room temperature with mechanical shaking at 750 rpm for 20 minutes. […] 10. Add 100 μL of Stop Solution (1N HCl) into each well. [0173] 11. Gently mix for 10 seconds to ensure a complete mixing. [0174] 12. Read optical density at A450 nm.
# (§2) The materials and method are the same as those described in Example 9 except the following.
# (§3) Rabbit monoclonal anti-mouse Id3, hybridoma supernatant was used as the test antibody. Protein G purified, rabbit monoclonal anti-mouse/human Id3 antibody, BCH-4/6-1, 0.92 mg/ml in 0.25% BSA was used as positive controls.
# [2] = molecular target: T2, Mouse Id3: Histidine; experiment: as above
# Method: as §1, §2, §3
# [3] = molecular target: T3, Mouse Id2: Histidine; experiment: as above
# Method: as §1, §2, §3
# [4] = molecular target: T4, Mouse Id1: Histidine; experiment: as above
# Method: as §1, §2, §3
# [5] = molecular target: T5, Human Id3: Histidine; experiment: as above
# Method: as §1, §2, §3
# [6] = molecular target: T6, Human Id2: Histidine; experiment: as above
# Method: as §1, §2, §3
# [7] = molecular target: T1, Human Id1: Histidine; experiment: ELISA, positive control (stated to be BCH-4/6-1) 0.50 µg/ml
# Method: as §1, §2, §3
# [8] = molecular target: T2, Mouse Id3: Histidine; experiment: as above
# Method: as §1, §2, §3
# [9] = molecular target: T3, Mouse Id2: Histidine; experiment: as above
# Method: as §1, §2, §3
# [10] = molecular target: T4, Mouse Id1: Histidine; experiment: as above
# Method: as §1, §2, §3
# [11] = molecular target: T5, Human Id3: Histidine; experiment: as above
# Method: as §1, §2, §3
# [12] = molecular target: T6, Human Id2: Histidine; experiment: as above
# Method: as §1, §2, §3
# [13] = molecular target: T1, Human Id1: Histidine; experiment: ELISA, Ab 0.010 µg/ml
# [14] = molecular target: T2, Mouse Id3: Histidine; experiment: ELISA, Ab 0.010 µg/ml
binder,measurement,setting,value
B1,A450,[1],2.12 A450
same,A450,[2],2.81 A450
same,A450,[3],2.44 A450
same,A450,[4],1.96 A450
same,A450,[5],2.69 A450
same,A450,[6],2.54 A450
same,A450,[7],2.13 A450
same,A450,[8],3.18 A450
same,A450,[9],3.1 A450
same,A450,[10],2.2 A450
same,A450,[11],2.83 A450
same,A450,[12],3.23 A450
same,A450,[13],0.078 A450
same,A450,[14],0.53 A450
